Patent publication US20260248897

How the values were obtained:
RBD of hCoV-229E, P15423 = biological target: T1, RBD of hCoV-229E, P15423
T1 chain: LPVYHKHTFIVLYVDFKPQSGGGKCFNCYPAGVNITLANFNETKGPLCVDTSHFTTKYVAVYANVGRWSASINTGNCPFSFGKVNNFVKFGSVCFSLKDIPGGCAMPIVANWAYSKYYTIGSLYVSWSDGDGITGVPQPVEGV

[1] = biological target: RBD of SARS-CoV-2 (B lineage), P0DTC2

B1: gene recombinant of human P5 (protein disulfide isomerase family A member 6) (protein)
chain: MGSSHHHHHHSSGLVPRGSHMLYSSSDDVIELTPSNFNREVIQSDSLWLVEFYAPWCGHCQRLTPEWKKAATALKDVVKVGAVDADKHHSLGGQYGVQGFPTIKIFGSNKNRPEDYQGGRTGEAIVDAALSALRQLVKDRLGGRSGGYSSGKQGRSDSSSKKDVIELTDDSFDKNVLDSEDVWMVEFYAPWCGHCKNLEPEWAAAASEVKEQTKGKVKLAAVDATVNQVLASRYGIRGFPTIKIFQKGESPVDYDGGRTRSDIVSRALDLFSDNAPPPELLEIINEDIAKRTCEEHQLCVVAVLPHILDTGAAGRNSYLEVLLKLADKYKKKMWGWLWTEAGAQSELETALGIGGFGYPAMAAINARKMKFALLKGSFSEQGINEFLRELSFGRGSTAPVGGGAFPTIVEREPWDGRDGELPVEDDIDLSDVELDDLGKDEL
With B1 the “disulfide bond cleavage activity (remaining rate of native RBD; maleimide-PEG 2k, SDS-PAGE)” value (RBD of hCoV-229E, P15423) was “The order of the disulfide bond cleavage activity of the RBD of hCoV-229E from highest to lowest was PDI, ERp46, P5, Erp57, and ERp72” and the “disulfide bond cleavage activity (remaining rate of native RBD; maleimide-PEG 2k, SDS-PAGE)” value [1] was “The order of the disulfide bond cleavage activity of the RBD from highest to lowest was PDI, ERp46, P5, ERp72, and ERp57”.

B2: gene recombinant of human ERp57 (protein disulfide-isomerase like protein ERp57) (protein)
chain: MGSSHHHHHHSSGLVPRGSHMLESDVLELTDDNFESRISDTGSAGLMLVEFFAPWCGHCKRLAPEYEAAATRLKGIVPLAKVDCTANTNTCNKYGVSGYPTLKIFRDGEEAGAYDGPRTADGIVSHLKKQAGPASVPLRTEEEFKKFISDKDASIVGFFDDSFSEAHSEFLKAASNLRDNYRFAHTNVESLVNEYDDNGEGIILFRPSHLTNKFEDKTVAYTEQKMTSGKIKKFIQENIFGICPHMTEDNKDLIQGKDLLIAYYDVDYEKNAKGSNYWRNRVMMVAKKFLDAGHKLNFAVASRKTFSHELSDFGLESTAGEIPVVAIRTAKGEKFVMQEEFSRDGKALERFLQDYFDGNLKRYLKSEPIPESNDGPVKVVVAENFDEIVNNENKDVLIEFYAPWCGHCKNLEPKYKELGEKLSKDPNIVIAKMDATANDVPSPYEVRGFPTIYFSPANKKLNPKKYEGGRELSDFISYLQREATNPPVIQEEKPKKKKKAQEDL
In the case of B2, the “disulfide bond cleavage activity (remaining rate of native RBD; maleimide-PEG 2k, SDS-PAGE)” value (RBD of hCoV-229E, P15423) is reported as “The order of the disulfide bond cleavage activity of the RBD of hCoV-229E from highest to lowest was PDI, ERp46, P5, Erp57, and ERp72” and the “disulfide bond cleavage activity (remaining rate of native RBD; maleimide-PEG 2k, SDS-PAGE)” value [1] is reported as “The order of the disulfide bond cleavage activity of the RBD from highest to lowest was PDI, ERp46, P5, ERp72, and ERp57”.

B3: gene recombinant of human ERp72 (protein disulfide isomerase family A member 4) (protein)
chain: MGSSHHHHHHSSGLVPRGSHEGPDEDSSNRENAIEDEEEEEEEDDDEEEDDLEVKEENGVLVLNDANFDNFVADKDTVLLEFYAPWCGHCKQFAPEYEKIANILKDKDPPIPVAKIDATSASVLASRFDVSGYPTIKILKKGQAVDYEGSRTQEEIVAKVREVSQPDWTPPPEVTLVLTKENFDEVVNDADIILVEFYAPWCGHCKKLAPEYEKAAKELSKRSPPIPLAKVDATAETDLAKRFDVSGYPTLKIFRKGRPYDYNGPREKYGIVDYMIEQSGPPSKEILTLKQVQEFLKDGDDVIIIGVFKGESDPAYQQYQDAANNLREDYKFHHTFSTEIAKFLKVSQGQLVVMQPEKFQSKYEPRSHMMDVQGSTQDSAIKDFVLKYALPLVGHRKVSNDAKRYTRRPLVVVYYSVDFSFDYRAATQFWRSKVLEVAKDFPEYTFAIADEEDYAGEVKDLGLSESGEDVNAAILDESGKKFAMEPEEFDSDTLREFVTAFKKGKLKPVIKSQPVPKNNKGPVKVVVGKTFDSIVMDPKKDVLIEFYAPWCGHCKQLEPVYNSLAKKYKGQKGLVIAKMDATANDVPSDRYKVEGFPTIYFAPSGDKKNPVKFEGGDRDLEHLSKFIEEHATKLSRTKEEL
With B3 the “disulfide bond cleavage activity (remaining rate of native RBD; maleimide-PEG 2k, SDS-PAGE)” value (RBD of hCoV-229E, P15423) was “The order of the disulfide bond cleavage activity of the RBD of hCoV-229E from highest to lowest was PDI, ERp46, P5, Erp57, and ERp72” and the “disulfide bond cleavage activity (remaining rate of native RBD; maleimide-PEG 2k, SDS-PAGE)” value [1] was “The order of the disulfide bond cleavage activity of the RBD from highest to lowest was PDI, ERp46, P5, ERp72, and ERp57”.
